Patent US20230324404A1 (Takeda / Millennium, published 2023)
Like-named read-outs stand apart in the source and are kept apart here.

Columns and labels:
[1] = biological target: T1, DENV2 VLP (strain Thailand/16681/84) (Dengue virus serotype 2 strain …); test: microsphere immunoassay, DENV2 VLP-coupled microspheres, 120 min incubation
T1 construct: also called dengue-2 virus like particle

[2] = biological target: T2, DENV4 VLP (strain Dominica/814669/1981) (Dengue virus serotype 4 strain …, UniProt P09866 114-732); test: microsphere immunoassay, DENV4 VLP-coupled microspheres, 120 min incubation
T2 construct: also called dengue-4 virus like particle

[3] = biological target: T3, DENV1 VLP (strain Puerto Rico/US/BID-V853/1998) (Dengue virus serotype 1 strain Puerto …); test: microsphere immunoassay, DENV1 VLP-coupled microspheres, 120 min incubation
T3 construct: also called dengue-1 virus like particle

[4] = biological target: T4, DENV3 VLP (strain Sri Lanka D3/H/IMTSSA-SRI/2000/1266) (Dengue virus serotype 3 strain Sri …); test: microsphere immunoassay, DENV3 VLP-coupled microspheres, 120 min incubation
T4 construct: also called dengue-3 virus like particle

[5] = biological target: T5, ZIKV VLP (zika virus like particle, isolate Z1106033) (Zika virus isolate Z1106033 (Suriname, …, UniProt A0A024B7W1 123-794))
T5 construct: also called zika VLP; ZIKV VLPs

[6] = biological target: T3, DENV1 VLP (strain Puerto …); test: microsphere immunoassay, DENV1 VLP-coupled microspheres
[7] = biological target: T4, DENV3 VLP (strain Sri Lanka …); test: microsphere immunoassay, DENV3 VLP-coupled microspheres
[8] = biological target: T1, DENV2 VLP (strain Thailand/16681/84); test: microsphere immunoassay, DENV2 VLP-coupled microspheres
[9] = biological target: T2, DENV4 VLP (strain Dominica/814669/1981); test: microsphere immunoassay, DENV4 VLP-coupled microspheres
[10] = biological target: T5, ZIKV VLP (zika virus like particle, …); remark: listed apart in the source
[11] = biological target: T5, ZIKV VLP (zika virus like particle, …); remark: listed apart in the source

Binder	binding result [1]	binding result [2]	binding result [3]	binding result [4]	EC25 [5] [µg/mL]	EC50 [5] [µg/mL]	binding result [6]	binding result [7]	binding result [8]	binding result [9]	EC50 [10] [µg/mL]	EC50 [11] [µg/mL]
Anti-ZIKV #9 (Clone 181-4) (antibody) heavy: QAQLEESGGDLVKPEGSLTLTCTASGFSFTDRHYMCWVRQAPGKGLEWIACVYPGSSGSTYYASWARGRFTISKTSSTTVTLRMTSLTAADTATYFCARSSYPDSSGYSYGMDLWGPGTLVTVSSGQPKAPSVFPLAPCCGDTPSSTVTLGCLVKGYLPEPVTVTWNSGTLTNGVRTFPSVRQSSGLYSLSSVVSVTSSSQPVTCNVAHPATNTKVDKTVAPSTCSKPTCPPPELLGGPSVFIFPPKPKDTLMISRTPEVTCVVVDVSQDDPEVQFTWYINNEQVRTARPPLREQQFNSTIRVVSTLPIAHQDWLRGKEFKCKVHNKALPAPIEKTISKARGQPLEPKVYTMGPPREELSSRSVSLTCMINGFYPSDISVEWEKNGKAEDNYKTTPAVLDSDGSYFLYSKLSVPTSEWQRGDVFTCSVMHEALHNHYTQKSISRSPGK light: DIVMTQTPASVEAAVGGTVTIKCQASQNINSNLAWYQQKPGQRPKFLMYLTSKLASGVPSRFRGSGSGTQFTLTISDLECADAATYYCQTYYDISNYGYAFGGGTEVVVKGDPVAPTVLIFPPAADQVATGTVTIVCVANKYFPDVTVTWEVDGTTQTTGIENSKTPQNSADCTYNLSSTLTLTSTQYNSHKEYTCKVTQGTTSVVQSFNRGDC	no binding (tested: 0.001 to 20 µg/mL)	no binding (tested: 0.001 to 20 µg/mL)	no binding (tested: 0.001 to 20 µg/mL)	no binding (tested: 0.001 to 20 µg/mL)	0.0059	0.0156						
Anti-ZIKV #2 (Clone 242-3) (antibody, V domains shown) VH: QAQLEESGGDLVKPEGSLTLTCTASGFSFTDRHYMCWIRQAPGKGLEWIACVYPGSSGSTYYASWARGRFTISKTSSTTVTLRMTSLTAADTATYFCARSSYPDSSGYSYGMDLWGPGTLVTVSS VL: DIVMTQTPASVEAAVGGTVTIKCQASQNINSNLAWYQQKPGQRPKFLMYLTSKLASGVPSRFRGSGSGTQFTLTISDLECADAATYYCQTYYDISNYGYAFGGGTEVVVKG					0.0024	0.008	no binding (tested: 0.001 to 20 µg/mL)	no binding (tested: 0.001 to 20 µg/mL)	no binding (tested: 0.001 to 20 µg/mL)	no binding (tested: 0.001 to 20 µg/mL)	0.044	0.14
Anti-ZIKV #3 (Clone 270-12) (antibody, V domains shown) VH: QAQLEESGGDLVKPEGSLTLTCTASGFSFTDRHYMCWVRQAPGKGLEWIACVYPGSSGSTYYASWARGRFTISKTSSTTVTLRMTSLTAADTATYFCARSSYPDSSGYSYGMDLWGPGTLVTVSS VL: DIVMTQTPASVEAAVGGTVTIKCQASQDINSNLAWYQQKPGQRPKFLMYLTSKLASGVPSRFRGSGSGTQFTLTISDLECADAATYYCQTYYDISNYGYAFGGGTEVVVKG					0.0045	0.0144	no binding (tested: 0.001 to 20 µg/mL)	no binding (tested: 0.001 to 20 µg/mL)	no binding (tested: 0.001 to 20 µg/mL)	no binding (tested: 0.001 to 20 µg/mL)	0.061	0.181
Anti-ZIKV #8 (Clone 260-2) (antibody) heavy: QAQLEESGGDLVKPEGSLTLTCTASGFSFTDRHYMCWVRQAPGKGLEWIACVYPGSSGSTYYASWARGRFTISKTSSTTVTLRMTSLTAADTATYFCARSSYPDSSGYSYGMDLWGPGTLVTVPSGQPKAPSVFPLAPCCGDTPSSTVTLGCLVKGYLPEPVTVTWNSGTLTNGVRTFPSVRQSSGLYSLSSVVSVTSSSQPVTCNVAHPATNTKVDKTVAPSTCSKPTCPPPELLGGPSVFIFPPKPKDTLMISRTPEVTCVVVDVSQDDPEVQFTWYINNEQVRTARPPLREQQFNSTIRVVSTLPIAHQDWLRGKEFKCKVHNKALPAPIEKTISKARGQPLEPKVYTMGPPREELSSRSVSLTCMINGFYPSDISVEWEKNGKAEDNYKTTPAVLDSDGSYFLYSKLSVPTSEWQRGDVFTCSVMHEALHNHYTQKSISRSPGK light: DIVMTQTPASVEAAVGGTVTIKCQASQNINSNLAWYQQKPGQRPKFLMYLTSKLASGVPSRFRGSGSGTQFTLTISDLECADAATYYCQTYYDISNYGYAFGGGTEVVVKGDPVAPTVLIFPPAADQVATGTVTIVCVANKYFPDVTVTWEVDGTTQTTGIENSKTPQNSADCTYNLSSTLTLTSTQYNSHKEYTCKVTQGTTSVVQSFNRGDC	no binding (tested: 0.001 to 20 µg/mL)	no binding (tested: 0.001 to 20 µg/mL)	no binding (tested: 0.001 to 20 µg/mL)	no binding (tested: 0.001 to 20 µg/mL)	0.0075	0.0252						
Anti-ZIKV #5 (Clone 306-2) (antibody, V domains shown) VH: QSLEESGGDLVKPGASLTLTCTASGFDFSDRYYMCWVRQAPGKGLEWIGCIYVGSGDTYYASWAKGRFTISRTSSTTVTLQMTRLTAADTATYFCARHPGTYFTLWGPGTLVTVSS VL: DVVMTQTPSSVSAAVGGTVTINCQASQNIVNNLAWYQQRPGQPPKLLIYDTSTLASGVPSRFKGSGSGTEFTLTISDLECADAATYYCQTYYYYNKIINGFGGGTEVVVKG					0.0047	0.0158	no binding (tested: 0.001 to 20 µg/mL)	no binding (tested: 0.001 to 20 µg/mL)	no binding (tested: 0.001 to 20 µg/mL)	no binding (tested: 0.001 to 20 µg/mL)	0.066	0.256
Anti-ZIKV #6 (IgG2c kappa, Clone ZV-67) (antibody, V domains shown) VH: QAQLQQSGTGLARPGASVKLSCKASGYTFTSYGISWVTQRAGQGLEWIGVIYPRSGNTYYNEKFRGKATLTADKSSSSAYMELRGLTAEDSAVYFCARENYGSVYWGQGTTLTVSS VL: DIVMTQSQKFMSTSVGDRVSITCKASQNVGTAVAWYQQKPGQSPKLLIYSASNRYTGVPDRFTGSGSGTDFTLTISNMQSEDLADYFCQQFSSYPYTFGGGTKLEIK					0.0081	0.0273	no binding (tested: 0.001 to 20 µg/mL)	no binding (tested: 0.001 to 20 µg/mL)	no binding (tested: 0.001 to 20 µg/mL)	no binding (tested: 0.001 to 20 µg/mL)	0.134	0.677
Anti-ZIKV #7 (IgG2a kappa, Clone ZKA-64) (antibody, V domains shown) VH: QVQLVQSGAEVKKPGASVKVSCKASGYTFTGYHIDWVRQARGQGLEWMGRINPNSGGTNYAQKFQGRVTMTRDTSISTAYMQLSRLRSDDSAVYYCARMSSSIWGFDHWGQGTLVTVSS VL: EIVMTQSPATLSVSPGERATLSCRASQSVLINLAWYQQKPGQAPRLLIYGASSRATGIPARFSGSGSGTEFTLTISSLQSEDFAVYYCQQYNDWPPITFGQGTRLEIK					0.0296	0.101	no binding (tested: 0.001 to 20 µg/mL)	no binding (tested: 0.001 to 20 µg/mL)	no binding (tested: 0.001 to 20 µg/mL)	no binding (tested: 0.001 to 20 µg/mL)	0.423	1.18
Anti-ZIKV #10 (Clone 329-2) (antibody) heavy: QAQLEESGGDLVKPEGSLTLTCTASGFSFTDRHYMCWVRQAPGKGLEWIACVYPGSSGSTYYASWARGRFTISKTSSTTVTLRMTSLTAADTATYFCARSSYPDSSGYSYGMDLWGPGTLVTVSSGQPKAPSVFPLAPCCGDTPSSTVTLGCLVKGYLPEPVTVTWNSGTLTNGVRTFPSVRQSSGLYSLSSVVSVTSSSQPVTCNVAHPATNTKVDKTVAPSTCSKPTCPPPELLGGPSVFIFPPKPKDTLMISRTPEVTCVVVDVSQDDPEVQFTWYINNEQVRTARPPLREQQFNSTIRVVSTLPIAHQDWLRGKEFKCKVHNKALPAPIEKTISKARGQPLEPKVYTMGPPREELSSRSVSLTCMINGFYPSDISVEWEKNGKAEDNYKTTPAVLDSDGSYFLYSKLSVPTSEWQRGDVFTCSVMHEALHNHYTQKSISRSPGK light: DIVMTQTPASVEAAVGGTVTIKCQASQNINSNLAWYQQKPGQRPKFLMYLTSKLASGVPSRFRGSGSGTQFTLTISDLECADAATYYCQTYYDISNYGYAFGGGTEVVVKGDPVAPTVLIFPPAADQVATGTVTIVCVANKYFPDVTVTWEVDGTTQTTGIENSKTPQNSADCTYNLSSTLTLTSTQYNSHKEYTCKVTQGTTSVVQSFNRGDC	no binding (tested: 0.001 to 20 µg/mL)	no binding (tested: 0.001 to 20 µg/mL)	no binding (tested: 0.001 to 20 µg/mL)	no binding (tested: 0.001 to 20 µg/mL)	0.0043	0.0145						
